Among the data in a protein production outcome set (Wang et al. 2014) are protein production values, retold here.
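Note: failed if final PepcDB status was selected cloned or expressed and not failed if soluble or beyond.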

A short description of the data set: label from the status in PepcDB records.
On to “MSLTDEPKLLAEPREGVPNVIDTLPAFRDYCSELASSHGSLAADAERASGFRYGHEDWLVQFKRDGAGIGLLDPQALAAAGADWNDFNRAVGDAVWILHDSLQDLPGFDELGMEPQRLFDTEIAARLLGLKRFGLAAVTEHFLGLTLAKEHSAADWSYRPLPRDWRNYAALDVELLIELETKMRAELKRQGKMEWAQEEFDYALKEGLGPRKEHLIPWMHVSHITEVMRDRQALAIVRALWTRRDELAREYDIAPTLLLSDSSIIEVAKRKPHNAAQFRSIRSINERVRIHTDSEQDKMFERYAPIQRKIKPSMWKNIIQDALALPPSEWPDVDGGAARRHESQSASAPKSIRVWKERYPERLQVLNRVRKAVSQIAEDTRTPVEIVIKPQYLRNLCWTDEPRKRDVARFLSEQGARDWQVSLVAESVSRAIEGHHHHHH”, for which the protein production entry was “not failed”.

As for “MSLTGNAQAATIADPSTLVVDTVGPVLTIGLNRPKKRNALNDGLMAALKDCLTDIPDQIRAVVIHGIGDHFSAGLDLSELRERDATEGLVHSQTWHRVFDKIQYCRVPVIAALKGAVIGGGLELACAAHIRVAEASAYYALPEGSRGIFVGGGGSVRLPRLIGVARMADMMLTGRVYSAAEGVVHGFSQYLIENGSAYDKALELGNRVAQNAPLTNFAVLQALPMIAEANPQTGLLMESLMATVAQSDQEAKTRIRAFLDHKTAKVREGHHHHHH”, the protein production result is “not failed”.

In the case of “MSLTHVIWDMGETLNTVPNTRYDHHPLDTYPEVVLRKNAKETLEKVKQLGFKQAILSNTATSDTEVIKRVLTNFGIIDYFDFIYASNSELQPGKMEKPDKTIFDFTLNALQIDKTEAVMVGNTFESDIIGANRAGIHAIWLQNPEVCLQDERLPLVAPPFVIPVWDLADVPEALLLLKKISEGHHHHHH”, the protein production result was “not failed”.

For “MSLTKIDAYAHILPAKYYQKMLSVEPNIPNMFPFIKIKTLMDLDERLTKWPDQNTKQVISLANISPEDFTDSKTSAELCQSANEELSNLVDQHPGKFAGAVAILPMNNIESACKVISSIKDDENLVGAQIFTRHLGKSIADKEFRPVLAQAAKLHVPLWMHPVFDARKPDNNLVFSWEYELSQAMLQLVQSDLFQDYPNLKILVHHAGAMVPFFSGRIDHILDEKHAQDFKKFYVDTAILGNTPALQLAIDYYGIDHVLFGTDAPFAVMPSGADQIITQAINDLTISDKDKQKIFHDNYYSLIKEGHHHHHH”, the protein production entry is recorded as “not failed”.

Turning to “MSLTKVSSLGYPRLGENREWKKLIEAYWAGKVSKNDLFAGAKELRLDFLKKQLNAGLDLIPVGDFSLYDHILDLSVQFNIIPKRFAKEPIDIDLYFAIARGNKENVASSMKKWFNTNYHYIVPEWSKQRPKLNNNRLLDLYLEAREVVGDKAKPVITGPITYVALSTGVEDFTAAVKSLLPLYKQVFTELVKAGASYIQVDEPIFVTDEGKDYLQAAKAVYAYFAKEVPDAKFIFQTYFEGLIDSQVLSQLPVDAFGLDFVYGLEENLEAIKTGAFKGKEIFAGVIDGRNIWSSDFVKTSALLETIEEQSAALTIQPSCSLLHVPVTTKNETDLDPVLRNGLAFADEKLTEVKRLAEHLDGREDPAYDLHIAHFDALQAADFRNVKLEDLSRVATKRPSDFAKRRDIQQEKLHLPLLPTTTIGSFPQSREIRRTRLAWKRGDISDAEYKQFIQAEIERWIRIQEDLDLDVLVHGEFERVDMVEFFGQKLAGFTTTKFGWVQSYGSRAVKPPIIYGDVQHLEPITVEETVYAQSLTDRPVKGMLTGPITITNWSFERTDIPRDQLFNQIGLAIKDEIKLLENAGIAIIQVDEAALREGLPLRKSKQKAYLDDAVHAFHIATSSVKDETQIHTHMCYSKFDEIIDAIRALDADVISIETSRSHGDIIESFETAVYPLGIGLGVYDIHSPRVPTKEEVVANIERPLRQLSPTQFWVNPDCGLKTRQEPETIAALKVLVAATKEVRQKLGNEGHHHHHH”, the protein production entry is given as “not failed”.

As to “MSLTLRVLAPDQNVFDGSADEVILPSTTGQLGILPGHISLLTAIDVGVLRVRANGGWNSIALMGGFAEVDADEVTVLVNQAELGSTIDGNTAEADFQKATTVVDGLEGQPASPEKVKAQQQLNMARARMQASKSAD”, the protein production result is “failed”.
